Among the data in the RNAGym collection of RNA variant scans (doi:10.7554/elife.80360) are self-cleavage values, retold here.

The labels stand for the following.
B1: Twister Ribozyme (parent)
chain: AACACUGCCAAUGCCGGUCCCAAGCCCGGAUAAAAGUGGAGGGGGCGG

Variants of B1 are the subject of this series. The series can be described thus: self-cleavage, relative activity (ratio to wild type); higher = more cleavage; co-transcriptional.
In the case of A1C G38U, the self-cleavage stood at 0.22.
Consider A2C U37G, for which the self-cleavage came out at 0.057.
Regarding A2G C19U, the self-cleavage came to 0.155.
Next, A2G C19G: 0.121; A2G G16C: 0.119.
Next, A1C C8G: 0.187; A2C A11G: 0.102; A1U G43C: 0.0749.
Next, A1C C26G: 0.171; A1C C26A: 0.171; A1C C26U: 0.133.
In the case of A1C C25A, the self-cleavage was determined as 0.148.
For the variant A1C A10G, the self-cleavage worked out at 0.133.
Under A1C A10U stands 0.153; under A1G A34G, 0.361.
Under A1G A34U stands 0.24; under A1U G38U, 0.0843.
Take A2G C21U: the self-cleavage was 0.0523.
A1C G24A: the self-cleavage came out at 0.161.
Consider A1C G24U, for which the self-cleavage was 0.111.
Under A1U C25A stands 0.0664; under A2G G36A, 0.118.
Turning to A2C A22C, the self-cleavage worked out at 0.0812.
On to A2C A22G, for which the self-cleavage came to 0.0432.
For the variant A2C A22U, the self-cleavage stood at 0.0564.
Regarding A1U U18G, the self-cleavage is 0.0681.
Under A1U U18C stands 0.054.
Next, A1U U18A: 0.0328; A2G A10U: 0.346; A1G A40G: 0.227.
For the variant A1C G17C, the self-cleavage is 0.145.
Regarding A1G G43U, the self-cleavage was determined as 0.243.
On to A1G G43A, for which the self-cleavage came to 0.176.
As to A1G A10C, the self-cleavage is 0.532.
As to A1U A30U, the self-cleavage turned out to be 0.0367.
Take A1U G17C: the self-cleavage amounted to 0.055.
Take A1U G17U: the self-cleavage stood at 0.0683.
Under A2C C3G stands 0.127; under A2G A11U, 0.583; under A2G A11C, 0.206.
On to A2C C46U, for which the self-cleavage was 0.0993.
In the case of A2C C46G, the self-cleavage worked out at 0.0474.
In the case of A2C C46A, the self-cleavage was 0.0436.
Take A1C A4U: the self-cleavage was found to be 0.116.
As to A1G G48U, the self-cleavage turned out to be 0.409.
Consider A1G G48A, for which the self-cleavage is 0.414.
Under A2G stands 0.411; under A2C, 0.0941; under A1C G39A, 0.162.
Consider A1C G39C, for which the self-cleavage worked out at 0.145.
Consider A2G C9U, for which the self-cleavage was found to be 0.0996.
Next, A2G C9A: 0.104; A1U A33C: 0.0396.
For A1U A33U, the self-cleavage worked out at 0.0603.
As to A1G A30G, the self-cleavage came out at 0.376.
As to A1G C9G, the self-cleavage is 0.315.
For the variant A1G C9U, the self-cleavage was 0.259.
Turning to A1C G47C, the self-cleavage was 0.199.
Under A1C G7U stands 0.149; under A1G U37C, 0.192.
Regarding A1U A22C, the self-cleavage was determined as 0.0885.
A2C G39U: the self-cleavage was found to be 0.0688.
A1C U31C: the self-cleavage was found to be 0.141.
For the variant A2G C26A, the self-cleavage was 0.134.
Next, A2G C26U: 0.08; A2G C26G: 0.035; A1U C3A: 0.222.
Regarding A1U G7C, the self-cleavage amounted to 0.0703.
For A2G G13C, the self-cleavage came out at 0.0608.
For A2G G13A, the self-cleavage came out at 0.131.
For the variant A2G G13U, the self-cleavage stood at 0.0873.
As for A2G G28A, the self-cleavage is 0.269.
Take A1C G44A: the self-cleavage came to 0.176.
Consider A1C G44C, for which the self-cleavage stood at 0.162.
As for A1C G44U, the self-cleavage was 0.133.
For A1C A22C, the self-cleavage came out at 0.134.
Take A1G G7C: the self-cleavage worked out at 0.0808.
Next, A2G G38A: 0.448; A2G G38C: 0.118.
Take A2G A30U: the self-cleavage amounted to 0.256.
Next, A2G A30C: 0.23; A2C U31G: 0.177.
For the variant A1C U6G, the self-cleavage was found to be 0.0831.
Under A1C U6C stands 0.147; under A1C U6A, 0.189.
With A2G C15U, the self-cleavage stood at 0.503.
Take A2G C15G: the self-cleavage came to 0.0529.
For the variant A2G C15A, the self-cleavage was 0.136.
Consider A2C G17A, for which the self-cleavage turned out to be 0.063.
For the variant A2C G17U, the self-cleavage is 0.0456.
Consider A1C C27U, for which the self-cleavage worked out at 0.138.
On to A1C C27G, for which the self-cleavage is 0.121.
As to A1G C20G, the self-cleavage turned out to be 0.134.
As to A2C G41C, the self-cleavage was 0.0702.
In the case of A2C G41U, the self-cleavage came to 0.0822.
With A2C G41A, the self-cleavage stood at 0.0488.
Take A1C G42C: the self-cleavage stood at 0.239.
For A1C G42U, the self-cleavage was 0.169.
For A1G C27A, the self-cleavage amounted to 0.189.
In the case of A1G C27U, the self-cleavage worked out at 0.36.
As to A1G C27G, the self-cleavage was found to be 0.178.
Turning to A1G C19G, the self-cleavage was determined as 0.202.
As for A1G C19U, the self-cleavage worked out at 0.345.
Turning to A1G C8A, the self-cleavage is 0.22.
Take A1U G36A: the self-cleavage was determined as 0.0371.
Next, A2G C3A: 0.171; A2G C3G: 0.583; A2C G44C: 0.035.
For A1G A23G, the self-cleavage came to 0.213.
Regarding A1G A23U, the self-cleavage amounted to 0.296.
On to A2G A4G, for which the self-cleavage turned out to be 0.212.
For A1U G48U, the self-cleavage was 0.0644.
Regarding A1U G48A, the self-cleavage came out at 0.0713.
As to A1U G48C, the self-cleavage stood at 0.0772.
Take A1U C14G: the self-cleavage came out at 0.0363.
A1U C14A: the self-cleavage came out at 0.0917.
Regarding A1C G43U, the self-cleavage was 0.179.
Under A2C G36A stands 0.0575; under A2C G36U, 0.0783; under A1C C15G, 0.187.
Regarding A2G A23G, the self-cleavage amounted to 0.0805.
With A2G A23U, the self-cleavage turned out to be 0.0843.
As for A2G A23C, the self-cleavage came out at 0.0651.
Take A2C C20G: the self-cleavage amounted to 0.0956.
Regarding A2C G48C, the self-cleavage was found to be 0.0956.
As for A1U U31G, the self-cleavage came out at 0.0468.
Turning to A1U U31A, the self-cleavage came out at 0.0544.
A2C C15U: the self-cleavage was 0.088.
Take A1G G16A: the self-cleavage amounted to 0.5.
As for A1G G16U, the self-cleavage worked out at 0.726.
Take A2G C46A: the self-cleavage was determined as 0.2.
With A2G C46G, the self-cleavage came to 0.431.
For the variant A1C A33C, the self-cleavage stood at 0.169.
For the variant A1C A33G, the self-cleavage came to 0.116.
Take A1U C21G: the self-cleavage was found to be 0.0652.
Regarding A1U C21U, the self-cleavage was 0.0559.
Under A1C C9U stands 0.174; under A1C C9A, 0.221; under A1C U12C, 0.144.
As to A1C G36U, the self-cleavage is 0.173.
For A1C G36A, the self-cleavage was determined as 0.203.
Next, A1G G13A: 0.383; A2G G24C: 0.0995; A2G G24A: 0.082.
As to A1U G29A, the self-cleavage was determined as 0.0545.
A1G A32C: the self-cleavage worked out at 0.497.
For the variant A1G A32G, the self-cleavage was found to be 0.507.
Take A1G A32U: the self-cleavage came to 0.459.
Under A1U C46U stands 0.0668.
Take A1G G45C: the self-cleavage was found to be 0.254.
For the variant A1G G45A, the self-cleavage worked out at 0.32.
In the case of A2C G45C, the self-cleavage came out at 0.0767.
Under A2C G45A stands 0.0666; under A1U C5G, 0.0467; under A2C C26G, 0.0867.
Consider A1U A23U, for which the self-cleavage was found to be 0.0522.
Consider A2C C25A, for which the self-cleavage came out at 0.0593.
In the case of A1U A35G, the self-cleavage was 0.025.
For the variant A1U A35C, the self-cleavage came to 0.0998.
For the variant A1U G47U, the self-cleavage stood at 0.0673.
On to A1U G47A, for which the self-cleavage was found to be 0.0626.
Next, A2C A4C: 0.154; A2C A4U: 0.0426; A2C A4G: 0.0453.
Turning to A1C A40G, the self-cleavage amounted to 0.117.
Consider A1C A40C, for which the self-cleavage turned out to be 0.186.
Take A2G C27A: the self-cleavage is 0.0876.
